Assay: yeast display, Sf9 membrane polyspecificity reagent, FACS + sequencing; frameworks hold sequencing errors
Outline: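 Nanobodies came from a synthetic yeast display library in Saccharomyces cerevisiae BJ5465, induced with galactose for 36–48 hours and stained for 1 hour at 4 °C with 10% biotinylated, detergent-solubilized Sf9 membrane reagent. Cells were enriched on streptavidin microbeads and then FACS-sorted, with low and high (top ~1%) gates set on anti-HA fluorescence for expression and streptavidin fluorescence for reagent binding. Each polyreactivity label reflects the gate a clone came from. Genes were amplified by colony PCR, sequenced by MiSeq 2 × 250 and filtered by CDR length.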

Sequence | polyreactivity (PSR sort gate)
EEELVESAVRLVQAGVSLRLSCAASAIIYAYNAMGWYRQAPGKESELVAAISSGDDTNYADSVKGRFTISRDNAKNTVYLQLNSLKPEDTAVYYCAAEVWTAFTHGSYWTVVDYDYWGQGTQVTVST | low polyreactivity
EEELVESGGGLVQAGGSSLRLSCAASGRTFSTNVMGWYRQAPGKERELVAAINRSGGSTYYADSVKGRFTISRDNAKNTVYLQMNSLKPEDTAVYYCAKRDGVGNHEFDYWGQGTQVTVSS | low polyreactivity
EVHLVESGGGLVQPGGSLRLSCAASGDIYSRYRMGWYRQAPGKGREFVAAISGGSSTNYADSVKGRFTISRDNSKNTVYLQMNSLRAVDTAVSYCAAYKIDSDPRVYWGQGTQVTVSS | low polyreactivity
EVQLEESGGGLVQAGGSLRLSCAASGSTFYQYALGWSRQAPGKERELVAAITTIGGRTYYADSVKGRFTISRDNAKNTVYLQMNSLNPEDTAVYYCAAGYRAWEPYGHYGYWGQGTQVTVSS | high polyreactivity
EVQLEESGGGLVQAGGSLRLSCPASGLIFGLYAMGWYRQAPGKERELVAAISYRTDSTYADSVKGRFTISRDNAKNTFYLQKNSLIPEDTAVYYCAADLRVSVGYYYWGQGTQVTVSS | low polyreactivity
EVQLVESGAGLVQAVGSLRLSCYASGFIFGYNAMGWYRQAHGKERELVAAISSGGGNTYYADSVKGRFTISRDNAKNTVYLQMNSLKPEDTAVYYCAAPDPRRPRRGDSWGQGTQVTVSS | low polyreactivity
EVQLVESGGGLVQAGGSLRLICAASGRTFQNYAMGWYRQAPGKERELVADITSGGSTYADSVKGRFTISRDNAKNTVYLQMNSLKPEDTAVYYCNADRTYPEPAEYYYWGQGTQVTVSS | low polyreactivity
EVQLVESGGGLVQAGGSLRLSCAASGRTFSYYAMGCYRQAPGKERELVAAISGGGSTNYADSVKGRFTISRDNAKYTVYLQMNSLKPEDTAVYYCAVGGFLRYRISLGKSYYYWGQGTQVTVSS | high polyreactivity
EVQLVESGGGLVQAGGSLRLSCAASGSTFRYNAMGWSRQAPGKEWEFVATISWTTGSTYYADSVKGRFTISRDNAKNTVYLQMNCLNAEDTAVYYCAAVASLFSDFRDYDYWGQGTQVTVSS | low polyreactivity
EVQLVESGGGLVQAGGSLRLTCAASGSIFPVYAMGWYRQAPGKERELVASISNGGTTYYADSVKGRFTISRDNAKNTVYLQMKSLKAEDTAVYYCAATGWAYGYGYGYWGQGSQVTVSS | low polyreactivity
EVQLVESGGGLVQPGGSLRLSCAASGYIYSRYRMGWYRQAPGKGREFVAAISGGSSTNYADSVKGRFTISRDNSKYTVYLQMNSLRAEDTAVYYCAAFKIDSDPRVYWGQGTQVTVSS | low polyreactivity
EVQLVESGGGLVQPGGSLRLSCAASGYIYSRYRMGWYRQAPGKGREFVAAISGGSSTNYADSVKGRFTSSRDNSKNTVYLQMNSLRAEDTAVYYCAAYKIDSDQRVYWGQGTQVTVSS | low polyreactivity
EVQQVESGGGLVQPGGSLRLSCAASGYIYSRYRMGWCRQAPGKGREFVAAISGGSSTNYADSVKGRFTISRDNSKITVYLQMKSLRAEDTAVYYCAAYMIDSDPRVFWGQGTQVNVSS | low polyreactivity
EVQVVESGGGLVQAGGSLRLSCAASGRIFLRNAMGWYRQAPGKEWEFVATITSGGSTFYADSVKGRFTISRDNAKNTFYLQMNRLKPEDTAVYYCAAPSYYTPFHTPNYCWGQVTQVTVSS | low polyreactivity
HAQLQESGGGLVQAGGSLRRSCAASGSMFRFSGMGWYRRAPGKERELVASIGFGSITYYADRVKGRFTISRDNANHTVYLQMNTLKPEDTAVYYCAVQVQDESWLDYWGQGTQVTVSC | low polyreactivity
HAQLQESGGGLVQAGGSLRRSFAASGSIFRFSGMGWYRRAPGKERELVASIGFGSITYYADRVKGRFTISRDNANNTVYLQMNSLKPEDTAVYYCAVQVQDESWLDYWGQGTQVTVSC | low polyreactivity
HEQRVESCGGLVQARCSLRLSCAASGGTFRYNTMGWYRQAPGKERDLVADISSDGRTYYADSVKGRFTISRDNAKTSVYLQMNSLKPEDTAVDYCAVDRFTPDVYEYGYWGQGTQVTVSS | high polyreactivity
HLQLVESGGGLVQAGGSLRLSCAASGSIFYYNAMGWYRQAPGKERELVASIRANGGNTYYADSVKGRFTISRDNAKNTVYLQMNSLKPEETAVYYCAKESRYAHLYYYWGQGTQVTVSS | low polyreactivity
HVELVDSGGGLVQAGGSLRLSCAASGSIFTDNTRGWFRQAPAKDRELVASISSGGRTYYADSVKGRFTISRDNAKNTVYLQMNSLKPEDTAVSYCAVSCWWKHNYWGQGTQVTVSS | high polyreactivity
HVPLVESGGGIVQAGGRMRLSCAASGSTFTEYAMGGYRQAPGKQREWVAGISSDGSTKYADSVKGRFTISRDNAKNTVYLQMNSLNPEDSAVYYCNKDQSDAKFDYWGQGTQVTVSS | low polyreactivity
HVQLQESGGGLVQACGSQRLSCAASGSISEGQDMGRYRLAPGKEREFVAGIAPGATTYYADSVKGRFTISRDNAKITVYLQMNSLIPEDNAVYYCAARSVTETDHDYWGQGTQVTVSS | low polyreactivity
HVQLQESGGGLVQAGGSLRLSCAASGSIFQATYMGWYRQAPGKEREFVASITYGSITKYADSVNGRFTIGRDNAKDTLYLQMNSLKPEDTAVYYCAVDRHYIPAFHYWGQGTQVTVSS | low polyreactivity

Sequence | polyreactivity (PSR sort gate)
HVQLQETGGGLVQAGGSLRLSCAASGSIFQATYMGWYRQAPGKEREFVASITYGSITIYADSVKGRFTIGRDNAKDTLYLQMNSLKPEDTAVYYCAVDRHYIPAFHYWGQGTQVTVSS | low polyreactivity
HVQLVDSGGGLVQAGGSLRLSCAASGYTFKYNTMGWYRQAPGKERDLVAAITRSGGSTYYADSVKGRFTISRDNAKNTVYLQMNSLKPEDTAVYYCAARAAYKQPVSFDYWGQGTQVTVSS | high polyreactivity
HVQLVESAGGLVQAGGSLRVSCAASGRTFEDNAMGWSRPAPGKERELVAAISSAGSTNYADSVKGRFTISRDNAKNTVYLQMTSLKPEDTAVYYCNATVYWPYDWRTSDYWGHGTQVTVSS | low polyreactivity
HVQLVESGGALVQAGGSLRLSCAASGYIFYYYAMGWYRQAPGKERELVAAITFSGGSTYYADSVKGRFTISRDIAKNTVYLQMNSLKPEDTAGYYCDKVELRDAAELGSDEYDYWGQGTKVTVSS | low polyreactivity
HVQLVESGGGIVQAGGSLRLSCAASGSTYVTNDMGSYRQAPGKERELVAAIYSGTSTNYADSVKGRFTISRDNAKNTVYLQMNSLKPEDTAVYYCAADSLKRYDYWGQGTQVSVSS | low polyreactivity
HVQLVESGGGIVQAGGSLRLSSAASGSTFGSNAMGWYRQAPGKERELVAAITYSGGRTYYADSVKGRFTISRDNAKNTVYLQMNSLKPEDTAVYYCAATFGFFYYQYDYWGQGTQVTVSS | low polyreactivity
HVQLVESGGGLVEAGGSLRLSCAASGYISYVNAMGWYRQAPGKERELVATISIRGGRTYYADSVKGRFTISRDNAKNTVYLQMNSLKPEDTAVYYCNVRRAYYRRGPYYSTYYYWGQGTQVTVSS | high polyreactivity
HVQLVESGGGLVHAGGSLRLRCAASGFTFTTYAMGWYRQAPWKEMELVARISRRSGSTYYADSVKGRFTLSRDNAKNTVYLQMNSLKPDDTAVYYCNADVDRSTTIFDYWGQGTQVTVSS | high polyreactivity
HVQLVESGGGLVHAGGSLRLSCAASGSILPKYAMGWYRQEPGKQRLLVATITWSGSSTYYADSVKGRFTISRDNAQNTVYLQMNSLKPEDTAVYYCAATGWSSFYYRFEYWGQGTQVTVSS | low polyreactivity
HVQLVESGGGLVPAGGSLRLSCAASGSTFIGYARGWYRQAPGKERELVAAISWSGGRTYYADSVKGRFTISRDNAKNTVYLQMNSLKPEDTAVYYCNTVPYRISVQFNYWGQGTQVTVSS | high polyreactivity
HVQLVESGGGLVQAGCSLRLSCAASGSIFLRNTMGWYRQAPGKEREFVAAITKRGGTTYYADSVKGRFTMSRDNAKNTVYLQMNSLKPDDTAVYYCAKSYDNEYGYWGQGTQVTVSS | high polyreactivity
HVQLVESGGGLVQAGGILRLSCAASGSTFVKYAMGWYRQATGKERELVAAISSRGGRTYYADSVKGRFTISRDNAKNTVYLQMNSLKPEDTAVYYCNKGTRLDGEYDYWGQGTQVTVSS | high polyreactivity
HVQLVESGGGLVQAGGSLRISCAASGFTFRYYAMGWYRQAAGKEMELVAAITSSGGRTYYADSVKGRFTISRDNAKNTVYLQMNSLKPEDTAVYYCNAAYGYVSRVYYLIEHDYWGHGTQVTVSS | high polyreactivity
HVQLVESGGGLVQAGGSLRLNCAASGSTFKRNAMGWYRQATGKERELVAAISRSGGSTYYADSVKGRFTISRDNAKTTVYLQMNSLNPEDTAVYFCNALRGTASWRGYYWGQGTQVTVSS | high polyreactivity
HVQLVESGGGLVQAGGSLRLRSAASGRIFYYNAMGWYRQAPGKERELVASISWDASSTYYADSVKGLFTISRDNAKNTVYLQMNSLKPEDTAVYYCNKIHLYRQYDYWGQGTQVTVSS | low polyreactivity
HVQLVESGGGLVQAGGSLRLSCAASGFIFPENAMGWYRQAPGKERELVAAIRTGGSTYYADSVKGRFTISRDNAKNTVYLQMNSLKPEDTAVYYCAARFHYEKYSYWYFDEDYWGQGTQVTVSS | high polyreactivity
HVQLVESGGGLVQAGGSLRLSCAASGFIFQYYCMGWYRQATRKERELVAAIDSRGGSTYYADSVKGRFTISRDNAKNTVYLQMNSLNPADTAVYYCAAMGLYQGTLNHFYYWGQGTQVTVSS | low polyreactivity
HVQLVESGGGLVQAGGSLRLSCAASGFTFGWNDMGWYRQAPGKERELVAAITWSGGSTYYADSVKGRFTISRDNAKNTVYLQMNSLKPEDTAVYYCAAVVSDYVWRYEYWGQGTQVTVSS | low polyreactivity
HVQLVESGGGLVQAGGSLRLSCAASGFTFWDYTMGWYRQAPGKERELVAAISSSGGGTYYADSVKGRFTISRDNAKNTVYLQMNSLKPEDTAVDYCNAVRFLDYWYPDTYGDWGQGTQVTLSS | low polyreactivity
HVQLVESGGGLVQAGGSLRLSCAASGGIFRGYTMGWYRQAPGKETEFVAAITYGGGGTYYADSVKGRFTISRDNAKNTVYLQMNSLKPEDTAVYYCNADLSDVAVTDHDYWGQGTQVTVSS | low polyreactivity
HVQLVESGGGLVQAGGSLRLSCAASGGIFSYYAMGWFRQAPGKERELVAAISSRGTNTHYADSVKGRFTISRDNAKNTVDLQMNSLKPEDTAVYYCAADKRASPIYDWGQGTQVTVSS | high polyreactivity

Source: the nanobody polyreactivity screen of Harvey et al. (2022)
